Laboratory results from patent US20240301038A1.

Molecular target: SARS-CoV-2 native Spike (S) trimer (Acro Biosystems) (SARS-CoV-2), P0DTC2
Assay: ELISA on spike trimer
Conditions: remark: other sources report otherwise

Binder	OD (450 nm)
AB-009614 (antibody, V domains shown) VH: QVQLVESGGGVVQPGRSLRLSCAASGFTFSSYGMHWVRQAPGKGLEWVAVISYDGSNKYYADSVKGRFTISRDNSKNTLYLQMNSLRAEDTAVYYCAKDQKYYDILTGYYRSTYYYYYYGMDVWGQGTTVTVSS VL: not shown	0.361 OD (450 nm)
AB-009769 (antibody, V domains shown) VH: EVQLVESGGGLVQPGGSLRLSCAASGFTFSSYWMSWVRQAPGKGLEWVANIKQDGSEKYYVDSVKGRFTISRDNAKNSLYLQMNSLRAEDTAVYYCARSPEVLWFGDPVLDNWFDPWGQGTLVTVSS VL: SYELTQPPSVSVSPGQTARITCSGDALPKQYAYWYQQKPGQAPVLVIYKDSERPSGIPERFSGSSSGTTVTLTISGVQAEDEADYYCQSADSSGTYPVVFGGGTKLTVL	2.87 OD (450 nm)
AB-009620 (antibody, V domains shown) VH: QITLKESGPTLVKPTQTLTLTCTFSGFSLSTSGVGVGWIRQPPGKALEWLALIYWDDDKRYSPSLKSRLTITKDTSKNQVVLTMTNMDPVDTATYYCAHHEVATVFDYWGQGTLVTVSS VL: QSALTQPASVSGSPGQSITISCTGTSSDVGAYNYVSWYQQHPGKAPKLMIYEVSNRPSGVSNRFSGSKSGNTASLTISGLQAEDEADYYCSSYTSSSTVFGGGTKLTVL	2.7 OD (450 nm)
AB-009615 (antibody, V domains shown) VH: QVQLVESGGGVVQPGRSLRLSCAASGFTFSSYGMHWVRQAPGKGLEWVAVIWYDGSNKYYADSVKGRFTISRDNSKNTLYLQMNSLRAEDTAVYYCAKVGSPYCSGGSCYSGYFDYWGQGTLVTVSS VL: not shown	2.8 OD (450 nm)
AB-009281 (antibody, V domains shown) VH: EVQLVETGGGLIQPGGSLRLSCAASGFTVSSNYMSWVRQAPGKGLEWVSVIYSGGSTYYADSVKGRFTISRDNSKNTLYLQMNSLRAEDTAVYYCARDLYYYGMDVWGQGTTVTVSS VL: DIQLTQSPSFLSASVGDRVTITCRASQGISSYLAWYQQKPGKAPKLLIYAASTLQSGVPSRFSGSGSGTEFTLTISSLQPEDFATYYCQQLNSYPTFGQGTKVEIK	2.6 OD (450 nm)
AB-009661 (antibody, V domains shown) VH: QVQLVESGGGVVQPGRSLRLSCAASGFTFSSYGMHWVRQAPGKGLEWVAVISYDGSNKYYADSVKGRFTISRDNSKNTLYLQMNSLRAEDTAVYYCAKDYGDYGGMDVWGQGTTVTVSS VL: not shown	2.86 OD (450 nm)
AB-009734 (antibody, V domains shown) VH: QVHLVQSGAEVKTPGASVRVSCKASGYTFTSHYMHWVRQAPGQGLEWMGLINPSGSGTAYPQHFQGRVTMTRDTSTTTDYMDLSSLRSEDTAMYFCARMERSGAFDLWGQGTMVTVSS VL: EIVLTQSPGTLSLSPGERATLSCRASQTISSRYLAWYYQKPGQAPRLLIQGSSIRATGIPDRFSGSGSGTDFTLTISRLEPEDFAVYYCQHYGSSPPMYTFGQGTKLEIK	3.57 OD (450 nm)
AB-009358 (antibody, V domains shown) VH: QVHLVQSGAEVKKPGASVKISCKASGYTFTSYYVHWVRQAPGQGLEWMGIIKPSGAGTIYAQKFQGRVTMTRDTSTSTVYMELSSLISEDTAVYYCARGGGVTDRDYWGQGTLVTVSS VL: QSALTQEASVSATVGQKVTLSCTGNTNNIGGYAVGWHQQISHGAPKTVMFGNSLPSGIPDRFSGSKSGTTASLIISGLQPEDEADYYCSTWDSSLGAVLFGGGTKLTVL	2.76 OD (450 nm)
AB-009346 (antibody, V domains shown) VH: EVQLVESGGGVVRPGGSLRLSCAASGFTFDDYGMSWVRQAPGKGLEWVSGINWNGGSTGYADSVKGRFTISRDNAKNSLYLQMNSLRAEDTALYYCARWPLLGISGYYHYYMDVWGKGTTVTVSS VL: QSALTQPRSVSGSPGQSVTISCTGTSSDVGGYNYVSWYQQHPGKAPKLMIYDVSKRPSGVPDRFSGSKSGNTASLTISGLQAEDEADYYCCSYAGSYTLLFGGGTKLIVL	2.55 OD (450 nm)
